From patent US10704056B2, “Constitutively active ABA receptor mutants” (The Regents of the University of California, priority 2011, dated 2020) come the findings set out here.

One assay has as its target T1, ABI2 (Arabidopsis thaliana, UniProt O04719).
T1 construct: Full length ABI1 and ABI2 were cloned into a modified pSUMO vector; made in house; host or cells: E. coli BL21 (DE3) pLysS
T1 sequence (O04719 1-423): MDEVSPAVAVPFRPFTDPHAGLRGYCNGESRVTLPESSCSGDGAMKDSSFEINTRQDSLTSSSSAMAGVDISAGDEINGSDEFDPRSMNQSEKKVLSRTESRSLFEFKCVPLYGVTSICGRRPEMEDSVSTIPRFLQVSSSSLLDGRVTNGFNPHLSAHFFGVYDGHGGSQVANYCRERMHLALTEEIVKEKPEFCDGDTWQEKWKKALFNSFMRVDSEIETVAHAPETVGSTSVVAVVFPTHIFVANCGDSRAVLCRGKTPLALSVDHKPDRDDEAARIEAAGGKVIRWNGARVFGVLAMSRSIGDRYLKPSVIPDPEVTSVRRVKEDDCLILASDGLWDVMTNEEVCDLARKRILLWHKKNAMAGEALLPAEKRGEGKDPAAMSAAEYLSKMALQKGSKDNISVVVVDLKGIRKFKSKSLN
As to the kind of experiment: In vitro PP2C phosphatase (pNPP) receptor activation assay with ABI2. The format is biochemical. The following applies: 600 nM PP2C, 0-4800 nM receptor, no ABA. How it is done:
(§1) Full length ABI1 and ABI2 were cloned into a modified pSUMO vector (LifeSensors Inc, USA) vector yielding 6×His-SUMO fusion proteins; GST-HAB1 was expressed and purified as previously described (Park et al., 2009). Mutant receptors were cloned into pET28 yielding 6×His-fusion proteins. […]. The cultures were pre-incubated 2 hours at 30° C. and, for PP2C expression, media was supplemented with 4 mM MnCl2 one hour after inoculation. After pre-incubation, IPTG was added (1 mM) and cells were induced at 15° C. for 16 hours, after which they were collected by centrifugation, resuspended in 5 ml Buffer A (50 mM NaH2PO4, 300 mM NaCl) +10 mM imidazole, pH 8.0 and stored at −80° C. For purification, cells were thawed, sonicated on ice (60 seconds) and a cleared lysate was then applied a 1 ml-bed volume column of Ni-NTA (Qiagen, USA), washed with 20 column volumes of Buffer A+30 mM imidazole and bound protein eluted with 1 ml of Buffer A+250 mM imidazole. For receptors, the elutate was dialyzed against TBS and for PP2Cs, fusion proteins were desalted by passage over a Sephadex G50 column.
(§2) The purified receptors and phosphatases were then used in receptor assays where receptor activation is indicated by inhibition of phosphatase activity, as inferred from initial reaction velocities for PP2C-mediated hydrolysis of the synthetic phosphatase substrate pNPP in reactions containing 600 nM PP2C and either 0, 600, 1200, 2400 or 4800 nM receptor. The receptor assay buffer consisted of 33 mM Tris-OAc, pH 7.9, 66 mM KOAc, 0.1% BSA, 25 mM Mn(OAc)2, 0.1%13-ME and 50 mM pNPP. Immediately after mixing proteins and substrates, reactions were monitored for hydrolysis of pNPP at A405 at ˜2 minutes intervals using a Wallac plate reader. Reaction progressions were plotted, initial velocities calculated and converted to specific activities by comparison to a standard curve for 4-nitrophenol made in the same buffer system. PP2C activity values shown in figures are expressed as %-control phosphatase activity levels, as measured under identical reaction conditions in the absence of receptor protein. The average specific activity level of GST-HAB1, 6×His-SUMO-ABI1 and 6×His-SUMO-ABI2 utilized in our experiments was 4500 (GST-PP2C) or 2500 (SUMO-PP2C) μmol/min/mg, when assayed using the phosphatase substrate pNPP in the absence of PYR1 or other receptors.

The next assay deals with T2, ABI1 (Arabidopsis thaliana, UniProt P49597).
T2 construct: Full length ABI1 and ABI2 were cloned into a modified pSUMO vector; made in house; host or cells: E. coli BL21 (DE3) pLysS
T2 sequence (P49597 1-434): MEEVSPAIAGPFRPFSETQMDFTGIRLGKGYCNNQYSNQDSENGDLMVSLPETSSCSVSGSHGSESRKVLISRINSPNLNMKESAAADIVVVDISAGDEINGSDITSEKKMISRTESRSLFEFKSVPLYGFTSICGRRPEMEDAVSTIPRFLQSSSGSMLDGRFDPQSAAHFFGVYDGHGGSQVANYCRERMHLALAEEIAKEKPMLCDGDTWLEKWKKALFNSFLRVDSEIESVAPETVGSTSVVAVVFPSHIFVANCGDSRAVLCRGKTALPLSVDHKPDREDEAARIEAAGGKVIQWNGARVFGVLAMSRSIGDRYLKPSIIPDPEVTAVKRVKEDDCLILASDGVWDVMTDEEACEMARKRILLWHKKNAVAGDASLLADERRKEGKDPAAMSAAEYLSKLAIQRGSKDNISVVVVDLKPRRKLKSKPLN
As to the kind of experiment: In vitro PP2C phosphatase (pNPP) receptor activation assay with ABI1. The format is biochemical. The following applies: 600 nM PP2C, 0-4800 nM receptor, no ABA. The procedure:
as §1, §2

B1: PYL2^CA3: PYL2 mutant (H65P, V87F, F165V); expressed in plants as 35S-driven GFP fusion (protein)
chain: HHHHHHMSSSPAVKGLTDEEQKTLEPVIKTYHQFEPDPTTCTSLITQRIHAPASVVWPLIRRFDNPERYKPFVKRCRLISGDGDVGSVREVTFISGLPASTSTERLEFVDDDHRVLSFRVVGGEHRLKNYKSVTSVNEFLNQDSGKVYTVVLESYTVDIPEGNTEEDTKMVVDTVVKLNLQKLGVAATSAPMHDDE
Take B1: in the assay with ABI2, the “constitutive receptor activity on ABI2 in the absence of ABA” value is recorded as “active towards multiple PP2Cs”. Also, the “constitutive receptor activity on ABI1 in the absence of ABA” value with ABI1 is reported as “active towards multiple PP2Cs”.
